Source: US20260234276A1 (DOMAIN THERAPEUTICS, published 2026)
Positions count from the first letter of the chain named. Where “and” joins values, the source holds several entries; their conditions need not be identical. Identical values can stand only once.

B1: 3-11 (antibody, V domains shown)
VH: EVQLVESGGGLVQPKGSLKLSCAASGFTFNTYAMNWVRQAPGKGLEWVARIRSKSNNYATYYADSVKDRFTISRDDSQSMLYLQMNNLKTEDTAMYYCVRGREAYYRYDGGYYAMDYWGQGTSVTVSS
VL: DIVMTQAAPSVPVTPGESVSISCRSSKSLLHSNGNTYLYWFLQRPGQSPQLLIYRMSNLASGVPDRFSGSGSGTAFTLRISRVEAEDVGVYYCMQHLEYPFTFGSGTKLEIK
B2: 3-51 (antibody, V domains shown)
VH: QVQLQQSGAELVRPGVSVKISCKGSGYTFTDYAIHWVKQRHAKSLEWIGVISTYYGDTRYNQKFKGKATMTVDKSSNTAYMELARLTSEDSAIYYCARGGLRQDYAMNYWGQGTSVTVSS
VL: not shown
B3: 3-52 (antibody, V domains shown)
VH: QVQLQQPGSELVRPGASVKLSCKASGYTFTSYWMHWVKQRPGQGLEWIGNIWPGSASTNYDEKFKNKATLTVDTSSSTAYMQLSSLTSEDSAVYYCIRGGKGAMDYWSQGTSVTVSS
VL: DVVMTQIPLSLPVSLGDQASISCRSSQSLENSYGNTYLNWYLQKPGQSPQLLIYRVSNRFSGVLDRFSGSGSGTDFTLKISRVEAEDLGVYFCLQVTHVPPTFGAGTKLELK
B4: 3-12 (antibody, V domains shown)
VH: QVQLQQPGAVLVKPGASVKMSCKASGYTFTSYNMHWLKQTPGQGLEWIGAIAPGKGDTSHNQKFKGKATLTADKSSSTAYMQLSSLTSEDSAVYYCARRNNYEPFVYWGQGTLVTVSA
VL: DIVFTQSPASLAVSLGQRATISCRASESVEYYGTSLMQWYQQKPGQPPKLLIYAASNVESGVPARFSGSGSGTDFSLNIHPVEADDIAMYFCQQSRKVPFTFGSGTKLEIK
B5: 3-23 (antibody, V domains shown)
VH: QVQLVETGGGLVRPGNSLKLSCVISGFTFSNYRIHWLRQPPGKRLEWIAVITVKSDNYEANYAESVKGRFTISRDDSKSSVYLQMNRLREEDTATYYCSRPDGFSPFVYWGQGTLVTVSA
VL: DIKMTQSPSSMYASLGERVTITCKASQDINNYLSWFQQKPGKSPKTLIYRADRLVDGVPSRFSGSGSGQDYSLTISSLDYEDMGIYYCLQYAEFPPTFGAGTKLELK
B6: 3-34 (antibody, V domains shown)
VH: EVQLQQSGPELVKPGASVKISCKTSGYTFTEYTIHWVKQSHGKSLEWVGGINPDNGNTRYDQKFKGKATLTIDKSSSTAYMELRSLTSEDSAVYYCARVARSSGSGPYAMDYWGQGTSVTVSS
VL: DVVMTQTPLSLPVSLGDQASISCRCTQSLLHTNGDTYLHWYLQKPGQSPKLLIYKVSNRFSGVPDRFSGSGSGTDFTLKISRVEAEDLGVYFCSQSTHVPYTFGGGTKLEIK
B7: 3-31 (antibody, V domains shown)
VH: DVQLQESGPGLVKPSQSLSLTCTVTGYSITSNYAWNWIRQFPGNKLEWMVYITYSGSTRFNPSLKSRISITRDTSKNQFFLQLNSVTTEDTATYYCARGENLFAYWGQGTLVIVSA
VL: DVVMTQTPLSLPVSLGDQASISCRSSQSLVHNNGNTYLHWYLQKPGQSPKLLIYKVSNRFSGVPDRFSGSGSGTDFTLKINRLEAEDLGVYFCSQSTYVPLTFGAGTKLELK
B8: 3-42 (antibody, V domains shown)
VH: QVQLKESGPGLVAPSQSLSITCTVSGFSLTDYRVSWIRQPPGKGLEWLGVIWGGRSTYYNSALKSRLSISKDNSKSQVFLKMNSLQTDDTAMYYCAKQGDGYYALDYWGQGTSVTVSS
VL: B6 VL with C25S, T26S, L30V, T32S, N33Y, D35N, S68H, Y101P
B9: 3-44 (antibody, V domains shown)
VH: QVQLKESGPGLVAPSQSLSITCTVSGFSLTDYGVSWIRQPPGKGPEWLGVIWGGGNTYYNSVLKSRLSISNDNSKSQVFLRMNSLQTADTAIYYCARPRRDYYALDYWGQGTSVTVAS
VL: B6 VL with C25S, T26S, L30V, H31Y, D35N, Y37F, Y101P
B10: 3-47 (antibody, V domains shown)
VH: QVQLQQPGAELVKPGASVKMSCKASGYTFTSYNMHWVKQTPGQGLEWIGAISPGNGDTSYNQKFKGKATLTADKSSSTAYMQLSSLTSEDSAVYYCARGKNGNVPMDYWGQGTSVTVSS
VL: B4 VL with F4L, Q38K, N57I, A84E, F100W, S104G
B11: 3-40 (antibody, V domains shown)
VH: QVQLKESGPGLVAPSQSLSITCTVSGLSMNDYVVTWIRQPPGKGLEWLGVIWGGGNTYYNSDLKSRLSITKDNSKSQVFFKMSSLQTDDTAVYYCARRHRDYALDYWGQGISVTVSS
VL: ENVLTQSPAIMSASPGEKVTMTCRASSSVSSSYLHWYQQKSGASPKLWIYSTSNLASGVPARFSGSGSGTSYSLTISSVEAEDAATYYCQQYSGYPYTFGGGTKLEIK

molecular target: T1, human CCR8 (human, UniProt P51685 1-355); assay: flow cytometry, hCCR8 transfected CHOK1 cells
T1 construct: the cells are named under assay; also called hCCR8
Experimental: Briefly, 1·10⁵ cells per well in a 96 well plate were incubated with a dilution of unconjugated anti-CCR8 mAb at 10 μg/mL then diluted at 1/3.33, 4 dilution points (during 30 min at 4° C.). […] To determine EC50 value, 8 concentrations of anti-CCR8 mAb were tested. Unbound antibodies were washed away with PBS (Invitrogen by Thermofisher Scientific, Illkirch-Graffenstaden, France) supplemented by 2% Fetal Bovine Serum (Invitrogen by Thermofisher Scientific, Illkirch-Graffenstaden, France) and 2 mM EDTA (Invitrogen by Thermofisher Scientific, Illkirch-Graffenstaden, France). Subsequently, cells are centrifuged (5 min at 400 g) and bound antibody is detected with F(ab′)₂-Goat anti-Mouse IgG (H+L) Cross-Adsorbed Secondary Antibody, Alexa Fluor 488 (dilution 1/500) (Invitrogen by Thermofisher Scientific, Illkirch-Graffenstaden, France) or with F(ab′)₂-Goat anti-Human IgG Fc Secondary Antibody, PE (Invitrogen by Thermofisher Scientific, Illkirch-Graffenstaden, France) (dilution 1/1000) at 4° C. for 30 min. Detection reagent is washed away and cells are centrifuged (5 min at 400 g) and resuspended in 30 μL PBS. Bound detection antibody is quantified on a MacsQuant16 (Miltenyi, Gladbach, Germany) (B1 or B2 channel, 5000 events per acquisition).

Binder	% positive cells [%]	MFI fold change to isotype ctrl [fold]
B1	90.6	22.7
B2	73.2	6.91
B3	81.6	9.92
B4	87.8	14.9
B5	80	12.7
B6	73.7	10.3
B7	65.6	5.35
B8	57.7	3.84
B9	78.9	6.36
B10	75.8	6.81
B11	69.9	5.81

molecular target: T1, human CCR8; assay: cell-based or functional assay

Binder	hCCL1 (100 nM) residual response, Protocol #2, mAb 0.08 µg/mL [%]	hCCL1 (100 nM) residual response, Protocol #2, mAb 0.4 µg/mL [%]	hCCL1 (100 nM) residual response, Protocol #2, mAb 10 µg/mL [%]	hCCL1 (100 nM) residual response, Protocol #3, mAb 0.05 µg/mL [%]	hCCL1 (100 nM) residual response, Protocol #3, mAb 0.5 µg/mL [%]	hCCL1 (100 nM) residual response, Protocol #3, mAb 5 µg/mL [%]
B1	60	36	19	74	68	48
B3	99	83	56	116	90	45

molecular target: pm3 (human, sulfated tyrosine at Y17); assay: ELISA on coated peptide [cont.]
Sequence (peptide, as listed by the source): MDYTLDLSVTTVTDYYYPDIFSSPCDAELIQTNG
Experimental: (§1) The specific binding properties of antibodies were evaluated by ELISA with coated CCR8 related peptides (500 ng/mL) in carbonate/bicarbonate buffer. Different peptides were used as described in Table 1 (see Example 1). Each anti-CCR8 mAb was tested at 1 μg/mL then diluted at 1/10. After an incubation at room temperature during 90 min, unbound mAbs were removed by washings. […] After washings, 3,3′,5,5′-tetramethylbenzidine (TMB) (Interchim, Montlugon, France) was added for 15 min. Then the optical density (OD) was determined by using a multiplate reader (Tecan, Lyon, France) and correlated with mAb reactivity on the panel of coated peptides.

Binder	binding result
B1	binds
B5	binds
B6	binds
B7	binds
B8	binds
B9	binds
B10	binds
B11	binds

molecular target: pm5 (human, sulfated tyrosines at Y15 and Y17); assay: ELISA on coated peptide [cont.]
Sequence (peptide, as listed by the source): as above
Experimental: as §1

Binder	binding result
B1	binds
B2	binds
B4	binds
B5	binds
B6	binds
B7	binds
B8	binds
B9	binds
B10	binds
B11	binds

molecular target: pm6 (human, sulfated tyrosines at Y16 and Y17); assay: ELISA on coated peptide [cont.]
Sequence (peptide, as listed by the source): as above
Experimental: as §1

Binder	binding result
B1	binds
B4	binds
B5	binds
B6	binds
B7	binds
B8	binds
B9	binds
B10	binds
B11	binds

molecular target: pm8 (human, sulfated tyrosines at Y15, Y16 and Y17); assay: ELISA on coated peptide [cont.]
Sequence (peptide, as listed by the source): as above
Experimental: as §1

Binder	binding result
B1	binds
B2	binds
B4	binds
B5	binds
B6	binds
B7	binds
B8	binds
B9	binds
B10	binds
B11	binds

molecular target: T1, human CCR8; assay: cell-based or functional assay; remark: another data set of the same source

Binder	IC50 (Gi2 BRET, pH 6.5)	IC50 (Gi2 BRET, pH 7.4)
B1	0.03 µg/ml and 0.198 nM	0.031 µg/ml and 0.21 nM
B2	> 67 nM and > 10 µg/ml	> 10 µg/ml and > 67 nM
B3	0.078 µg/ml and 0.523 nM	0.087 µg/ml and 0.579 nM
B4	0.037 µg/ml and 0.248 nM	0.088 µg/ml and 0.587 nM
B5	> 4.5 µg/ml and > 30 nM	> 4.5 µg/ml and > 30 nM
B6	0.207 µg/ml and 1.38 nM	0.281 µg/ml and 1.88 nM
B7	0.163 µg/ml and 1.09 nM	0.237 µg/ml and 1.58 nM
B8	0.516 µg/ml and 3.44 nM	0.82 µg/ml and 5.47 nM
B9	0.578 µg/ml and 3.85 nM	0.812 µg/ml and 5.41 nM
B10	0.175 µg/ml and 1.16 nM	0.483 µg/ml and 3.22 nM
